This data set deals with the molecule itself. Briefly: SDS-PAGE without reductant (Coomassie brilliant blue, Western blot); purified protein, serially diluted, incubated with loading buffer without beta-mercaptoethanol at 37 °C or 100 °C for 10 min; also with beta-mercaptoethanol at 100 °C (~280 kDa band disappeared, ~70 kDa band weakened); also after incubation with 2 mM dUMP and 2 mM mTHF (bands unchanged); anti-His-tag blot. (A western blot detects proteins with antibodies after separation by electrophoresis.)

Residue numbers refer to the chain shown, from its start.

B1: TYMS (Cys210Gly) (enzyme, human, UniProt P04818-1 1-313, looked up)
chain: MPVAGSELPRRPLPPAAQERDAEPRPPHGELQYLGQIQHILRCGVRKDDRTGTGTLSVFGMQARYSLRDEFPLLTTKRVFWKGVLEELLWFIKGSTNAKELSSKGVKIWDANGSRDFLDSLGFSTREEGDLGPVYGFQWRHFGAEYRDMESDYSGQGVDQLQRVIDTIKTNPDDRRIIMCAWNPRDLPLMALPPCHALCQFYVVNSELSGQLYQRSGDMGLGVPFNIASYALLTYMIAHITGLKPGDFIHTLGDAHIYLNHIEPLKIQLQREPRPFPKLRILRKVEKIDDFKAEDFQIEGYNPHPTIKMEMAV
notes: thymidylate synthase (TYMS), human, NM_001071.2, with Cys210Gly made by fusion PCR, in pET-28a(+); Same construct as m1 with the point mutation; source: expressed from pET-28a, purified (Ni-NTA twice); not shown: His6, N-terminal, kept
On to B1, for which the binding result is “binds”.

B2: TYMS (Cys180Gly) (enzyme, human, UniProt P04818-1 1-313, looked up)
chain: B1 chain with C180G, G210C
notes: thymidylate synthase (TYMS), human, NM_001071.2, with Cys180Gly made by fusion PCR, in pET-28a(+); Same construct as m1 with the point mutation; source: expressed from pET-28a, purified (Ni-NTA twice); not shown: His6, N-terminal, kept
Turning to B2, the binding result is on record as “binds”.

(Values after paper PMC5983622, “New Insight into the Octamer of TYMS Stabilized by Intermolecular Cys43-Disulfide” (International Journal of Molecular Sciences, 2018).)
